Results as given in paper PMC10532153, “Interactions of the N- and C-Terminal SH3 Domains of Drosophila Drk with the Proline-Rich Peptides from Sos and Dos” (International Journal of Molecular Sciences, 2023).

Experiments:
[1] = molecular target: T1, N-terminal SH3 domain of Drosophila Drk (Drk-NSH3) (Drosophila, UniProt Q08012 1-59); assay: NMR titration; 2D 1H-15N HSQC of 15N-labelled Drk-NSH3 (0.3 mM), peptide added stepwise up to protein:peptide 1:8; 20 mM KH2PO4/K2HPO4 pH 7.4, 100 mM KCl, 1 mM DTT, 0.05% NaN3, 10% D2O; 25 °C; CSPs fitted to a conformational selection model (Kd and Kf), bootstrap 1000 iterations; details: both partners purified
T1 construct: Downstream receptor kinase (Drk), Drosophila homologue of GRB2, 211 residues; N-terminal SH3 domain, residues 1-59; Isolated domain is in equilibrium between a folded and an unfolded state; source: E. coli BL21 (DE3) star, pET-3a, uniformly 15N-labelled, purified (DEAE sepharose, Superdex 75, Resource Q)
T1 sequence (Q08012 1-59): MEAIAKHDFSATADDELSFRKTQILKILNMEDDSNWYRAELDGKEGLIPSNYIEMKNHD

[2] = molecular target: T2, C-terminal SH3 domain of Drosophila Drk (Drk-CSH3) (Drosophila, UniProt Q08012 153-211); assay: NMR titration; 2D 1H-15N HSQC of 15N-labelled Drk-CSH3 (0.3 mM), peptide added stepwise up to protein:peptide 1:8; NMR buffer (20 mM KH2PO4/K2HPO4 pH 7.4, 100 mM KCl, 1 mM DTT, 0.05% NaN3); 25 °C; CSPs fitted to a single-binding model, bootstrap 1000 iterations; details: both partners purified
T2 construct: Downstream receptor kinase (Drk), Drosophila homologue of GRB2, 211 residues; C-terminal SH3 domain; the solution structure PDB 7Y4N is of this domain
T2 sequence (Q08012 153-211): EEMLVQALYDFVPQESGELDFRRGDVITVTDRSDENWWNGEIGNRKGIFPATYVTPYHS

B1: Dos-S2 peptide (Daughter of Sevenless residues 690-702) (peptide)
peptide: GPPSVDRKCKPNA
notes: Daughter of Sevenless (Dos), Drosophila, proline-rich motif PxxxRxxKP in the C-terminal unstructured region, residues 690-702; Thirteen residues; the nine-residue peptide of the earlier study extended by two residues at each end; also called "longer" Dos-S2; source: synthetic peptide, bought: Eurofins Genomics
Q: For B1, which Kd [1] is on record?
A: 242 ± 11.6 µM

Q: And the Kd [2]?
A: 250 ± 21.5 µM
